Test results from article PMC5464678 (The Journal of Physical Chemistry Letters, 2017).

Target: T1, Cnu (UniProt P64467 1-71)
T1 sequence (looked up): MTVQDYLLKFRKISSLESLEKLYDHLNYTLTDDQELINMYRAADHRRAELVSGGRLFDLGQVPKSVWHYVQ
Assay: fluorescence polarisation; tryptophan fluorescence anisotropy of Cnu, titrated with H-NS(1-59) at select temperatures (278 to 310 K); apparent dissociation constants from fits assuming a 1:1 binding equilibrium
Conditions: both partners purified

B1: H-NS_(1–59) (domain or fragment, UniProt P0ACF8 1-59, looked up)
chain: MSEALKILNNIRTLRAQARECTLETLEEMLEKLEVVVNERREEESAAAAEVEERTRKLQ
- fold decrease of binding affinity, 310 K against 278 K: ~5 fold
